Results as given in article PMC9984425, “An autoimmune pleiotropic SNP modulates IRF5 alternative promoter usage through ZBTB3-mediated chromatin looping”.

B1: rs4728142-A (dsDNA)
DNA 1: CCAAAAAGCTCTGAGCCAGTGTTAGTAAGAAATGG
DNA 2: CCATTTCTTACTAACACTGGCTCAGAGCTTTTTGG
B2: IRF5-promoter (dsDNA)
DNA 1: CCGGGAGCCCCGCTGGAGGCTGGCTTGGA
DNA 2: TCCAAGCCAGCCTCCAGCGGGGCTCCCGG

Target: ZBTB3 recombinant protein (UniProt Q9H5J0 1-574)
Assay: EMSA; 10 ng recombinant protein; EMSA: 20 nM biotin probe, 100 mM Tris pH 7.5, 55 mM KCl, 2.5 mM MgCl2, 1 mM DTT, 500 ng poly(dI-dC), 5% glycerol, 0.05% NP-40, 20 ul, room temperature 20 min; 500x unlabeled competitor; 6% native PAGE, 0.5x TBE
Settings: protein: commercial; chain copies: 2; label: 5' biotin on strand 1; blunt

ZBTB3 recombinant protein, sequence (Q9H5J0 whole entry): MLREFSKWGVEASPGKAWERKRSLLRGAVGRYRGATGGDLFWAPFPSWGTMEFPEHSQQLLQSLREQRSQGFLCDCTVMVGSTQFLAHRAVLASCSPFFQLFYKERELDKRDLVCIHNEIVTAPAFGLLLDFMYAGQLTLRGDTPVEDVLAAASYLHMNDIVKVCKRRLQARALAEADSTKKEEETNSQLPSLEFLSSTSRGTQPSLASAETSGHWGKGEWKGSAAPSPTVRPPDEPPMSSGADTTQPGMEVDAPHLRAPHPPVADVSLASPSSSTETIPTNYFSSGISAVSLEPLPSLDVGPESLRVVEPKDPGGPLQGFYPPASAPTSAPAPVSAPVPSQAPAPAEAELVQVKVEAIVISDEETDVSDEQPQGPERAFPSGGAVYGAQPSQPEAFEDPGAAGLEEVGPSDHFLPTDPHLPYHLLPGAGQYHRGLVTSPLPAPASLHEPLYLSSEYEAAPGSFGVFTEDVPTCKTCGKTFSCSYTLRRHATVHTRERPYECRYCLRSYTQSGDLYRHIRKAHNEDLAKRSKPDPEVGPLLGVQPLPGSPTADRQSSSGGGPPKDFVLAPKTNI

| Binder | binding result |
| --- | --- |
| B1 | binds |
| B2 | binds |
